US20240216513A1, “FATTY ACID-BIFUNCTIONAL DEGRADER CONJUGATES AND THEIR METHODS OF USE” (Novartis AG, priority 2021, published 2024)

Legend:
[1] = BTK FAC plasma stability assay, mouse plasma; format: in vitro ADME; conditions: for Plasma stability (h) mouse: incubation to 24 h
Method: (§1) Plasma stability was conducted in Dulbecco's PBS buffer, mouse plasma, rat plasma or human plasma frozen with K3-EDTA from BiolVT). Thawed plasma was centrifuged prior to warming for 5 minutes at 37° C. Working solutions were prepared from 10 mM DMSO solution to 500 µM in acetonitrile:water (1:1); 2 µL of working solution was added to 198 µL blank plasma or PBS and mixed manually. 4×45 µL of spiked matrix was aliquoted into glass incubation plates (96-well DW glass microplate) and sealed with blue silicon/PTFE seal; then incubated on a Thermo shaker (38° C. 300 RPM). Samples were prepared at 0, 2, 6 and 24 h timepoints, by protein precipitation with chilled acetonitrile containing internal standard Glyburide (0.2 µM). Precipitated samples were shaken for 10 minutes and stored at 4° C. until completion of the study. Following precipitation of the terminal sample, samples were frozen at −80° C. for 1 hour. Samples were then thawed prior to centrifugation (20 minutes, 4500 RPM at 4° C.). 50 µL of supernatant of each sample was transferred to 384 well analysis plate containing 30 µL of water. Semi quantitative analysis (analyte: internal standard peak area ratio) was performed by LC-MS/MS using a Sciex QTrap 5500.

[2] = BTK FAC plasma stability assay, rat plasma; format: in vitro ADME; conditions: for Plasma stability (h) rat: incubation to 24 h
Method: as §1

[3] = BTK FAC plasma stability assay, PBS buffer arm; format: physicochemical; conditions: for Plasma stability (h) PBS: incubation to 24 h
Method: as §1

[4] = target: T1, BTK C481S (Homo sapiens, UniProt Q06187, C481S); experiment: PD screen in TMD8 BTK C481S mutant tumor-bearing mice, BTK levels and compound concentrations in blood and tumor; format: in vivo, mouse; conditions: i.v.; 25 umol/kg
T1 construct: endogenous in cells; host or cells: TMD8 BTK C481S mutant tumour xenografts in mice
Method: All animal studies were conducted in accordance with ethics and procedures covered by permit nos. BS-1975 issued by the Kantonales Veterinäramt Basel-Stadt and in strict adherence to guidelines of the Eidgenössisches Tierschutzgesetz and the Eidgenössische Tierschutzverordnung, Switzerland. All animals had access to food and water ad libitum and were identified with transponders. They were housed in a specific pathogen-free facility with a 12-h light/12-h dark cycle. For PD screen experiments in TMD8 BTK C481S mutant tumor-bearing mice, FAC was injected once. Animals were randomized into groups of 2 and tissue samples collected at day 0, 4, 7 and in some studies day 10 as well. Blood samples were collected and tumors were excised, weighed, frozen in liquid nitrogen and cryogenic dry pulverized with the CryoPrep™ system (model CP-02, Covaris). Concentrations of compounds in blood and tumors were determined by UPLC/MS-MS and BTK levels were analyzed by Meso Scale Discovery.

[5] = BTK FAC plasma stability assay, dog plasma; format: in vitro ADME
[6] = BTK FAC plasma stability assay, cyno plasma; format: in vitro ADME, cynomolgus monkey

T1 sequence (Q06187 whole entry C481S): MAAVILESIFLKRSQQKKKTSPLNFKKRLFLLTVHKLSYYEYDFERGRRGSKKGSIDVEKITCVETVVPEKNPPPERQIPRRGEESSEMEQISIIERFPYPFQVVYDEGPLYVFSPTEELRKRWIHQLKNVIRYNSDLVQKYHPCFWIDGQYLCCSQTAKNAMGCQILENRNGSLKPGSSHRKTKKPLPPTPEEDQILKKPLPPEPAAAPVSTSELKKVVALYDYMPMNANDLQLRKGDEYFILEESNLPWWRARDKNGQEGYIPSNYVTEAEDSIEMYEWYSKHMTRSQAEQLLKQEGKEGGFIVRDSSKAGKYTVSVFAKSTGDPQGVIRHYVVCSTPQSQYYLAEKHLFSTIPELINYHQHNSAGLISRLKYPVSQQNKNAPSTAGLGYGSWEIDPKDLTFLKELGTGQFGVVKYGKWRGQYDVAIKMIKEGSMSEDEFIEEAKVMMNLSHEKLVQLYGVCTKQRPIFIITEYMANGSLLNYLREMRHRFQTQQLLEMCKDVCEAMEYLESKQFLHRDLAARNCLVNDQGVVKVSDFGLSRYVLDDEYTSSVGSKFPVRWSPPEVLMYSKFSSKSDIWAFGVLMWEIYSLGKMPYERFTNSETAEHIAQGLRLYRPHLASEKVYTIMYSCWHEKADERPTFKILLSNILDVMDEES

SMILES | % Release of degrader after 24 h mouse [1] [%] | Plasma stability (h) mouse [1] [h] | % Release of degrader after 24 h rat [2] [%] | Plasma stability (h) rat [2] [h] | % Release of degrader after 24 h PBS [3] [%] | Plasma stability (h) PBS [3] [h] | Duration of BTK degradation in mouse ≥90% [4] [days] | Plasma stability (h) dog [5] [h] | % Release of degrader after 24 h dog [5] [%] | Plasma stability (h) cyno [6] [h] | % Release of degrader after 24 h cyno [6] [%]
CCCCCCCCCCCN(C(=O)CCCCCCCCCC(=O)O)C(CCC(=O)NCCOCCOCCOCCOCCOCCOCCOCCOCCOCCOCCOCCOCCC(=O)N[C@H](C)C(=O)OC(C)(C)c1ccc(C(=O)Nc2cc(F)cc(-c3ncnc4[nH]c(-c5ccc(CCN6CCC7(CC6)CCN(C(=O)c6ccc(OC)c(N8CCC(=O)NC8=O)c6)CC7)cc5)cc34)c2C)c(F)c1)C(=O)O (stereo partly drawn) [Example A17, (5R)-50-Carboxy-2-(4-((3-(6-(4-(2-(9-(3-(2,4-dioxotetrahydropyrimidin-1(2H)-yl)-4-methoxybenzoyl)-3,9-diazaspiro[5.5]undecan-3-yl)ethyl)phenyl)-7H-pyrrolo[2,3-d]pyrimidin-4-yl)-5-fluoro-2-methylphenyl)carbamoyl)-3-fluorophenyl)-2,5-dimethyl-4,7,47,52-tetraoxo-51-undecyl-3,10,13,16,19,22,25,28,31,34,37,40,43-tridecaoxa-6,46,51-triazadohexacontan-62-oic acid] | 2.3 | >48 | 2.5 | >48 | 1.2 | >48 | 4 | 33.3 | 3.7 |  | 
CCCCCCCCCCCN(C(=O)CCCCCCCCCC(=O)O)C(CCC(=O)NCCOCCOCCOCCOCCOCCOCCOCCOCCOCCOCCOCCOCCC(=O)NCc1ccc(C(=O)OC(C)(C)c2ccc(C(=O)Nc3cc(F)cc(-c4ncnc5[nH]c(-c6ccc(CCN7CCC8(CC7)CCN(C(=O)c7ccc(OC)c(N9CCC(=O)NC9=O)c7)CC8)cc6)cc45)c3C)c(F)c2)cn1)C(=O)O (stereo not shown) [Example A25, 46-Carboxy-1-(5-(((2-(4-((3-(6-(4-(2-(9-(3-(2,4-dioxotetrahydropyrimidin-1(2H)-yl)-4-methoxybenzoyl)-3,9-diazaspiro[5.5]undecan-3-yl)ethyl)phenyl)-7H-pyrrolo[2,3-d]pyrimidin-4-yl)-5-fluoro-2-methylphenyl)carbamoyl)-3-fluorophenyl)propan-2-yl)oxy)carbonyl)pyridin-2-yl)-3,43,48-trioxo-47-undecyl-6,9,12,15,18,21,24,27,30,33,36,39-dodecaoxa-2,42,47-triazaoctapentacontan-58-oic acid] | 20.9 | 17.8 | 1.5 | 35.7 | 2.2 | >48 |  | >48 | 1.1 | >48 | 1.1
CCCCCCCCCCCN(C(=O)CCCCCCCCCC(=O)O)[C@@H](CCC(=O)NCCOCCOCCOCCOCCOCCOCCOCCOCCOCCOCCOCCOCCC(=O)NCCCC(=O)OC(C)(C)c1ccc(C(=O)Nc2cc(F)cc(-c3ncnc4[nH]c(-c5ccc(CCN6CCC7(CC6)CCN(C(=O)c6ccc(OC)c(N8CCC(=O)NC8=O)c6)CC7)cc5)cc34)c2C)c(F)c1)C(=O)O [Example A27, (S)-52-Carboxy-2-(4-((3-(6-(4-(2-(9-(3-(2,4-dioxotetrahydropyrimidin-1(2H)-yl)-4-methoxybenzoyl)-3,9-diazaspiro[5.5]undecan-3-yl)ethyl)phenyl)-7H-pyrrolo[2,3-d]pyrimidin-4-yl)-5-fluoro-2-methylphenyl)carbamoyl)-3-fluorophenyl)-2-methyl-4,9,49,54-tetraoxo-53-undecyl-3,12,15,18,21,24,27,30,33,36,39,42,45-tridecaoxa-8,48,53-triazatetrahexacontan-64-oic acid] | 13.7 | 28.6 | 2 |  | 0.3 | >48 |  | >48 | 0.5 | 26.6 | 0.4
CCCCCCCCCCCN(C(=O)CCCCCCCCCC(=O)O)C(CCC(=O)NCCOCCOCCOCCOCCOCCOCCOCCOCCOCCOCCOCCOCCC(=O)NCc1ccc(C(=O)OC(C)(C)c2ccc(C(=O)Nc3cc(F)cc(-c4ncnc5[nH]c(-c6ccc(CCN7CCC8(CC7)CCN(C(=O)c7ccc(OC)c(N9CCC(=O)NC9=O)c7)CC8)cc6)cc45)c3C)c(F)c2)cc1)C(=O)O (stereo not shown) [Example A14, 46-Carboxy-1-(4-(((2-(4-((3-(6-(4-(2-(9-(3-(2,4-dioxotetrahydropyrimidin-1(2H)-yl)-4-methoxybenzoyl)-3,9-diazaspiro[5.5]undecan-3-yl)ethyl)phenyl)-7H-pyrrolo[2,3-d]pyrimidin-4-yl)-5-fluoro-2-methylphenyl)carbamoyl)-3-fluorophenyl)propan-2-yl)oxy)carbonyl)phenyl)-3,43,48-trioxo-47-undecyl-6,9,12,15,18,21,24,27,30,33,36,39-dodecaoxa-2,42,47-triazaoctapentacontan-58-oic acid] | 9.5 | >48 | 0.3 | >48 | 0.2 | >48 |  | >48 | 0.1 | >48 | 0.2
CCCCCCCCCCCN(C(=O)CCCCCCCCCC(=O)O)C(CCC(=O)NCCOCCOCCOCCOCCOCCOCCOCCOCCOCCOCCOCCOCCC(=O)NCCC(=O)OC(C)(C)c1ccc(C(=O)Nc2cc(F)cc(-c3ncnc4[nH]c(-c5ccc(CCN6CCC7(CC6)CCN(C(=O)c6ccc(OC)c(N8CCC(=O)NC8=O)c6)CC7)cc5)cc34)c2C)c(F)c1)C(=O)O (stereo not shown) [Example A12, 51-Carboxy-2-(4-((3-(6-(4-(2-(9-(3-(2,4-dioxotetrahydropyrimidin-1(2H)-yl)-4-methoxybenzoyl)-3,9-diazaspiro[5.5]undecan-3-yl)ethyl)phenyl)-7H-pyrrolo[2,3-d]pyrimidin-4-yl)-5-fluoro-2-methylphenyl)carbamoyl)-3-fluorophenyl)-2-methyl-4,8,48,53-tetraoxo-52-undecyl-3,11,14,17,20,23,26,29,32,35,38,41,44-tridecaoxa-7,47,52-triazatrihexacontan-63-oic acid] | 14.2 | 27.3 | 2 | >49 | 0.3 | >48 |  | >48 | 1.2 | 44.9 | 0.5
COc1ccc(C(=O)N2CCC3(CCN(CCc4ccc(-c5cc6c(-c7cc(F)cc(NC(=O)c8ccc(C(C)(C)OC(=O)CNC(=O)CCOCCOCCOCCOCCOCCOCCOCCOCCOCCOCCOCCOCCNC(C)=O)cc8F)c7C)ncnc6[nH]5)cc4)CC3)CC2)cc1N1CCC(=O)NC1=O [Example A33, 2-(4-((3-(6-(4-(2-(9-(3-(2,4-Dioxotetrahydropyrimidin-1(2H)-yl)-4-methoxybenzoyl)-3,9-diazaspiro[5.5]undecan-3-yl)ethyl)phenyl)-7H-pyrrolo[2,3-d]pyrimidin-4-yl)-5-fluoro-2-methylphenyl)carbamoyl)-3-fluorophenyl)propan-2-yl (2-oxo-6,9,12,15,18,21,24,27,30,33,36,39-dodecaoxa-3-azadotetracontan-42-oyl)glycinate] | 27.7 | 5.1 | 16.7 | 2.3 | 4.8 | >48 |  | 32 | 10.4 | 45.7 | 8.1
